Experiment [1] concerns the target T1, recombinant human IGF-1R (rhIGF-1R) (human, UniProt P08069 31-935).
T1 construct: extracellular domain; Coated on plates in the TRF assay and europium-labelled (LANCE) in the TR-FRET assays; also called rhIGE-1R; Eu3+-rhIGF-1R
Nature of the experiment: heterogeneous TRF (DELFIA) competition with b-rhIGF-1 for plate-coated rhIGF-1R. Here is the method:
(§1) The plates were incubated for 2 hr at RT.

Experiment [2] deals with human IGF-1R on FDCP-2 cells (human, UniProt P08069 31-1367). Nature of the experiment: cell-based or functional assay.
The target of experiment [3] is T1, recombinant human IGF-1R (rhIGF-1R). Nature of the experiment: column 'nM Ki app Kd' of Table 15 (IGF-1R summary); values match the TRF competition with b-rhIGF-1 on rhIGF-1R of Table 20. Here is the method:
as §1

For experiment [4], the target named is T2, human insulin receptor (HIR) (human, UniProt P06213 28-1382, limits assumed). Nature of the experiment: Kd(HIR), insulin competition.
Experiment [5] concerns the target T3, soluble human insulin receptor-immunoglobulin heavy chain chimera (sIR-Fc) (human, UniProt P06213 28-956, limits assumed, Eu3+ label (LANCE) in the TR-FRET assays).
T3 construct: extracellular domain; construct of Bass et al., 1996; also called HIR-immunoglobulin heavy chain chimera; not shown: immunoglobulin heavy chain constant domains
Put plainly: TR-FRET competition vs b-S175, sIR-Fc. On the procedure: The TR-FRET assays were performed in a 384-well white microplate with a final volume of 30 μl.

The target in experiment [6] is T4, soluble HIR ectodomain (sIR) (human, UniProt P06213-2 28-944, limits assumed).
T4 construct: extracellular domain
Put plainly: FP competition vs FITC-RP9, sIR. The source says: Fluorescence polarization assays (FP) were used for peptide competition studies.

In experiment [7] the target is human IGF-1R on FDCP-2 cells (human, UniProt P08069 31-1367). Nature of the experiment: cell-based or functional assay. The source holds these as a separate data set.
The target of experiment [8] is T5, Human insulin receptor (HIR), purified from transfected cells after solubilization with Triton X-100 (human, UniProt P06213 28-1382, limits assumed).
T5 construct: Detergent-solubilised receptor
Nature of the experiment: competition with 125I-insulin for solubilised HIR, PEG precipitation; Kd calculated from the competition curve.

The target of experiment [9] is T5, Human insulin receptor (HIR), purified …. The description is as above. This is another data set of the same source.
Experiment [10] addresses insulin receptor (IR) on mouse free fat cells (mouse, UniProt P15208 28-1372). Put plainly: cell-based or functional assay.
Experiment [11] deals with T2, human insulin receptor (HIR). Put plainly: cell-based or functional assay.
Experiment [12] has the same target. Put plainly: 125I-insulin competition, solubilised HIR.
Experiment [13] has as its target T5, Human insulin receptor (HIR), purified …. Put plainly: competition with 125I-insulin for solubilised HIR, PEG precipitation; Kd calculated from the competition curve. This is another data set of the same source.
In experiment [14] the target is T1, recombinant human IGF-1R (rhIGF-1R). Nature of the experiment: ratio of the IC50 at rhIGF-1R (TR-FRET) to the IC50 at sIR-Fc (FP); higher values indicate higher affinity for IR than IGF-1R. A general note: In TR-FRET formats the signal depends on donor and acceptor labels being close together.
Experiment [15] shares this target. Put plainly: TR-FRET competition with b-20E2 for rhIGF-1R.
Experiment [16] shares this target. Put plainly: TR-FRET competition with b-20E2 for Eu3+-rhIGF-1R.
The target in experiment [17] is T6, soluble human insulin receptor-immunoglobulin heavy chain chimera (sIR-Fc) (human, UniProt P06213 28-956, limits assumed).
T6 construct: extracellular domain; also called sIR-Ec; not shown: immunoglobulin heavy chain constant domains
Nature of the experiment: fluorescence polarization competition with FITC-RP9 for sIR-Fc. In general terms: Fluorescence polarisation rises when a labelled molecule tumbles more slowly, as on binding a larger partner.

For experiment [18], the target named is human IGF-1 receptor (HIGF-1R) (human, UniProt P08069 31-1367). Nature of the experiment: 125I-IGF-1 competition, solubilised HIGF-1R.

Read-outs that look alike come from different tables or passages of the source. Positions of bridges follow the written chain, without caps; N, C: chain ends. No end group written: not given here.

Here are results for 27 molecules from patent US20030236190A1 (published 2003).

Chain of insulin receptor (IR) on mouse free fat cells (P15208 28-1372): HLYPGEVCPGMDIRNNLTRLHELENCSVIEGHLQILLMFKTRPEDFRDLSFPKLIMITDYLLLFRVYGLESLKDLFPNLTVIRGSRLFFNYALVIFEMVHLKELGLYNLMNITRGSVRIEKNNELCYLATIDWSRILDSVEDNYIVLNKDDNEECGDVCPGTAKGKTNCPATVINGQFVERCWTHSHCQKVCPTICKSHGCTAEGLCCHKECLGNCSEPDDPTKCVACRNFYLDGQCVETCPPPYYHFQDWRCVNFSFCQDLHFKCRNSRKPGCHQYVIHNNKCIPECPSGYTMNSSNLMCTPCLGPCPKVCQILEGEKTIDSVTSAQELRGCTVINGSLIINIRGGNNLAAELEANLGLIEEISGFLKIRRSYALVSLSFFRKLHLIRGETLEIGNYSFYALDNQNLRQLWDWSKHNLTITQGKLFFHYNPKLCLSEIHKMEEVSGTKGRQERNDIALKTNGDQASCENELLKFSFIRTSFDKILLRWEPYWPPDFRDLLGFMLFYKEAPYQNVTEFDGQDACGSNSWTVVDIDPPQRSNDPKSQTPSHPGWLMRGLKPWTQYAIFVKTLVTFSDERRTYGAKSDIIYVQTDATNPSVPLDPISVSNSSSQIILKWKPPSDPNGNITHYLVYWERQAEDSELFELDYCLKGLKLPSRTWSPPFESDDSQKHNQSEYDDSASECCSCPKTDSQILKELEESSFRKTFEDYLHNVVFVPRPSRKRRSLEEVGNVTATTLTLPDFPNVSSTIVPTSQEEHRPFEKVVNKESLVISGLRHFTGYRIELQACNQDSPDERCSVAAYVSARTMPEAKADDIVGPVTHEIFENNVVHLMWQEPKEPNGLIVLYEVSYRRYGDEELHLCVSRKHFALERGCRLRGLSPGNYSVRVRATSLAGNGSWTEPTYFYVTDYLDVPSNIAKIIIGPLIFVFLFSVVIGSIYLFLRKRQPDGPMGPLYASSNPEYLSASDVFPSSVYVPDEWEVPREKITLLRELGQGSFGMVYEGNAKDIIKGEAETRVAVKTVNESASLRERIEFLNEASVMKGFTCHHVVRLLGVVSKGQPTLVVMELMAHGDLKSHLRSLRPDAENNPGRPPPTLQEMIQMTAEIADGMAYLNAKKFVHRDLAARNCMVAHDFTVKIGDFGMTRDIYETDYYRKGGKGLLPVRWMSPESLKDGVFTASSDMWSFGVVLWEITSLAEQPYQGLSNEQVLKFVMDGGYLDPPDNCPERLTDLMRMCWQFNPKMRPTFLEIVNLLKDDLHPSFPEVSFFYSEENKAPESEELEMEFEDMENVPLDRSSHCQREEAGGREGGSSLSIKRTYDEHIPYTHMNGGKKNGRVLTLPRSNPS

B1: recombinant peptide surrogate G33 (rG33) (peptide)
peptide: GIISQSCPESFYDWFAGQVSDPWWCW
notes: Recombinant form
What is called IC50 is the concentration that gives 50% inhibition. Turning to B1, in [1], the IC50 is 1450 nM. Also, in [2], the “ED50 Growth” value turned out to be 500 nM, the Ki/ED50 is 2.9 and the “Max Action” value was > 50. Further, in experiment [3], the Ki was 1450 nM.

B2: 463 (other, not shown: large carriers; small tags and cut ends)
chain: NNNNLGIEGRISEFIEGRAQPAMAFHENFYDWFVRQVSGGSFHENFYDWFVRQVSAAAGAPVPYPDPLEPRAA
notes: MBP fusion
As usually defined, the Kd is the equilibrium constant for the complex coming apart. In turn, B2 yielded a Kd in experiment [4] of 960 nM.

B3: D815-6aa-G33 (peptide)
peptide: WLDQERAWLWCEISGRGCLSGGSGGSGIISQSCPESFYDWFAGQVSDPWWCW
notes: Site 2-Site 1 dimer peptide, recombinant; also called D815-G33 (6 aa linker); D815-6-G33
Regarding B3, in experiment [1], the IC50 came to 624 nM. Further, the “Max Action” value in experiment [2] is < 10%. The Ki in experiment [3] was 624 nM.

B4: 437 (other, not shown: large carriers; small tags and cut ends)
chain: NNNNLGIEGRISEFIEGRAQPAMAFHENFYDWFVRQVSAAAGAPVPYPDPLEPRAA
notes: MBP fusion
For B4, in experiment [4], the Kd worked out at 8300 nM.

B5: S380 (peptide)
peptide: EEDWLQRNANFYDWFVAELX
modifications: C-terminal Lig'; copies joined C-C by chemical linker 9
notes: also called (EE-short-S175-Lig)2-9
As to B5, the values for the IC50 in experiment [5] and in experiment [6] were 10 nM and 0.5 nM, respectively.

B6: D815 (peptide)
peptide: WLDQERAWLWCEISGRGCLS
modifications: disulfide 11-18 (inferred)
Turning to B6, the “IGF-1 agonist (proliferation) assay, FDCP-2 cells; ED50” value (from here on “IGF-1 agonist (proliferation) assay”) in experiment [7] was ~2000 nM.

B7: recombinant peptide surrogate D815 (rD815) (peptide)
peptide: WLDQERAWLWCEISGRGCLS
modifications: disulfide 11-18 (inferred)
notes: Recombinant form
Regarding B7, the IC50 in experiment [1] came to 4080 nM. Also, in [2], the “ED50 Growth” value worked out at 500 nM and the “Max Action” value was > 50%. In addition, the Ki in experiment [3] worked out at 4080 nM.

B8: D815-12aa-RP9 (peptide)
peptide: WLDQERAWLWCEISGRGCLSGGSGGSGGSGGSGSLDESFYDWFERQLGKK
modifications: not fully specified (bridges); cysteine pairing not given here
notes: Site 2-Site 1 dimer peptide, recombinant; also called D815-RP9 (12 aa linker); D815-12-RP9
Turning to B8, the IC50 in experiment [1] came out at 3.22 nM. In [2], the “ED50 Growth” value was found to be 10000 nM, the Ki/ED50 is 0.0003 and the “Max Action” value turned out to be 100. The Ki in experiment [3] turned out to be 3 nM.

B9: S394 (peptide)
peptide: GSLDESFYDWFERQ
notes: Synthetic truncated RP9 monomer peptide
On to B9, for which the Kd in [8] and in experiment [9] was 81 nM each time.

B10: 535 (peptide)
peptide: MADYKDDDDKGSLDESFYDWFERQLGKKGGSGGSGGSGGSGSLDESFYDWFERQLGKKAAAGAPVPYPDPLEPRPG
As to B10, the “FFC Pot.” value in [10] stood at 2 nM. The “Kinase Pot.” value in [11] worked out at 1000 nM.

B11: S395 (peptide)
peptide: GSLDESFYDWFERQL
notes: as for B9
Consider B11, for which the dissociation constant (Kd) in experiment [8] and in [9] was 91 nM each time.

B12: 539 (peptide)
peptide: MADYKDDDDKWLDQEWAWVQCEVYGRGCPSGGSGGSGSLDESFYDWFERQLGKKAAAGAPVPYPDPLEPRPG
notes: recombinant dimer with tags at both ends; also called D8-6aa-RP9
In turn, B12 came in with a Kd in [12] of 0.53 nM. In [10], the “FFC Pot.” value turned out to be 10 nM. The “Kinase Pot.” value in experiment [11] is 110 nM.

B13: 464 (other, not shown: large carriers; small tags and cut ends)
chain: NNNNLGIEGRISEFIEGRDYKDDDDKFHENFYDWFVRQVSAAGAPVPYPDPLEPRAA
notes: MBP fusion
For the molecule B13, the Kd in [4] was found to be 39 nM.

B14: 436 (other, not shown: large carriers; small tags and cut ends)
chain: NNNNLGIEGRISEFIEGRAQPAMAFHENFYDWFVRQVSGGSGGSGGSFHENFYDWFVRQVSAAAGAPVPYPDPLEPRAA
notes: MBP fusion
Take B14: in experiment [4], the Kd amounted to 410 nM.

B15: S386 (peptide)
peptide: GSLDESFYDWFERQLG
notes: also called RP9 minus terminal lysines
Consider B15, for which, in experiment [9], the equilibrium dissociation constant (Kd) is 320 nM.

B16: S371 (peptide)
peptide: GSLDESFYDWFERQLGKK
notes: Synthetic RP9 monomer peptide; also called RP9; S371 (RP9)
Regarding B16, the Kd in experiment [8] and in [13] was 630 nM in each case.

B17: RP9 (peptide)
peptide: GSLDESFYDWFERQLG
notes: as for B15
Consider B17, for which the “Binding Ratio IGF-1R/IR” value in experiment [14] was 1.4. For the same molecule, the IC50 in experiment [15] came out at 33 nM; in [1], 417 nM; in experiment [16], 39.3 nM; in [17] it was 24 nM. Moreover, the “IC50 Antag.” value in experiment [2] came to 900 nM. The Ki/ED50 in experiment [2] was determined as 0.5. The “Max Action” value in experiment [2] is < 10%. Besides, the Ki in experiment [3] is 417 nM.

B18: S374 (peptide)
peptide: XGSLDESFYDWFERQLGKK
chain: XGSLDESFYDWFERQLGKK
modifications: not fully specified; the two chains are joined N-terminus to N-terminus through chemical linker 17 of Table 3 (Table 7 prints an N-terminal Ald group on each chain)
notes: Synthetic RP9 homodimer (Site 1-Site 1, N-N)
In the case of B18, the equilibrium dissociation constant (Kd) in [13] is 180 nM.

B19: 537 (peptide)
peptide: MADYKDDDDKGSLDESFYDWFERQLGKKGGSGGSWLDQEWAWVQCEVYGRGCPSAAAGAPVPYPDPLEPRPG
notes: recombinant dimer with tags at both ends; also called RP9-6aa-D8
For the molecule B19, the values for the Kd in experiment [18] and in experiment [12] were 980 nM and 0.092 nM, respectively. For the same molecule, in experiment [10], the “FFC Pot.” value was 10 nM.

B20: S400 (peptide)
peptide: ESFYDWFERQ
notes: as for B9
Turning to B20, the Kd in experiment [8] and in [9] was 630 nM throughout.

B21: D815-6aa-RP9 (peptide)
peptide: WLDQERAWLWCEISGRGCLSGGSGGSGSLDESFYDWFERQLGKK
notes: Site 2-Site 1 dimer peptide, recombinant; also called D815-RP9 (6 aa linker); D815-6-RP9
B21: the IC50 in experiment [1] was found to be 35.7 nM. Besides, in [2], the “ED50 Growth” value came to 50 nM, the “IC50 Antag.” value is > 500 nM, the Ki/ED50 was 0.8 and the “Max Action” value was > 50%. In experiment [3], the Ki was found to be 36 nM.

B22: 435 (other, not shown: large carriers; small tags and cut ends)
chain: NNNNLGIEGRISEFIEGRAQPAMAFHENFYDWFVRQVSGGSFHENFYDWFVRQVSGGSFHENFYDWFVRQVSAAAGAPVPYPDPLEPRAA
notes: MBP fusion
B22: in experiment [4], the Kd worked out at 2000 nM.

B23: S399 (peptide)
peptide: ESFYDWFERQL
notes: as for B9
Regarding B23, the Kd in [8] and in experiment [9] was 91 nM in each case.

B24: 521 (peptide)
peptide: MADYKDDDDKGSLDESFYDWFERQLGKKGGSGGSGSLDESFYDWFERQLGKKAAAGAPVPYPDPLEPRPG
notes: recombinant dimer with tags at both ends (FLAG, E-Tag); also called RP9-6aa-RP9
In experiment [12], B24 had a Kd of 25 nM. Moreover, the “FFC Pot.” value in [10] was 3 nM. The “Kinase Pot.” value in [11] worked out at 1400 nM.

B25: S415 (peptide)
chain: ESFYDWFERQLGK
modifications: not fully specified (residue 13, C-terminus); also: dimer, two chains joined C-terminus to C-terminus through linker 23
On to B25, for which the Kd in experiment [8] is 100 nM.

B26: 20E2 (peptide)
peptide: DYKDFYDAIDQLVRGSARAGGTRD
Consider B26, for which, in experiment [7], the “IGF-1 agonist (proliferation) assay” value is > 10000 nM.

B27: G33 (peptide)
peptide: GIISQSCPESFYDWFAGQVSDPWWCW
On to B27, for which the “IGF-1 agonist (proliferation) assay” value in experiment [7] is ~10000 nM.
